Primed or numbered codes have the meaning given here. Where no end group is shown, it is not given here. FITC′ = fluorescein isothiocyanate
T1: Cardiac muscle myosin S2 synthetic peptide for GFS, E930del mutant (MYH7 E930del), 35 residues (human, not fully specified)
T1 peptide: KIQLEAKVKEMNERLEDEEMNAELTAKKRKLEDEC

B1: Human β-cardiac mutant myosin S2 peptide (E930del), 18 residues (peptide)
peptide: EMNERLEDEEMNAELTAK
modifications: also: in FRET: FITC on N-terminus of one monomer, terbium-DTPA-cytosine chelate on C-terminal Lys of the other
notes: Deletion of glutamate 930 already in the entry; also called Edel930; ΔE930
B2: TRITC (tetramethylrhodamine) labeled stabilizing peptide (peptide)
peptide: KKKKKKKKFKAKKKKKK
modifications: also: TRITC label, site not given here
notes: also called labeled Stabilizer; fluorescently labelled stabilizer peptide
B3: Skeletal muscle myosin S2 synthetic peptide for GFS (MYH2), 36 residues (peptide)
peptide: KIQLEAKIKEVTERAEDEEEINAELTAKKRKLEDEC
B4: Human smooth myosin S2 peptide (MYH11), 21 residues (peptide)
peptide: EMEARLEEEEDRGQQLQAERK
modifications: also: in FRET: FITC on N-terminus of one monomer, terbium-DTPA-cytosine chelate on C-terminal Lys of the other
notes: also called smooth muscle myosin S2^pep
B5: Stabilizer peptide (peptide)
peptide: KKKKKKKKFKAKKKKKK
notes: also called stabilizing peptide; unlabeled stabilizer
B6: Cardiac muscle myosin S2 synthetic peptide for GFS (MYH7), 36 residues (peptide)
peptide: KIQLEAKVKEMNERLEDEEEMNAELTAKKRKLEDEC
modifications: also: crosslinked to coverslip or silica bead through iodoacetamide-succinimidyl ester
B7: Smooth muscle myosin S2 synthetic peptide for GFS (MYH11), 36 residues (peptide)
peptide: KQELEEILHEMEARLEEEEDRGQQLQAERKKMAQQC
B8: Human skeletal myosin S2 peptide (MYH2), 19 residues (peptide)
peptide: EVTERAEDEEEINAELTAK
modifications: also: in FRET: FITC on N-terminus of one monomer, terbium-DTPA-cytosine chelate on C-terminal Lys of the other
notes: also called skeletal muscle myosin S2^pep
B9: Human β-cardiac myosin S2 peptide, wild-type (MYH7, 19 residues) (peptide)
peptide: EMNERLEDEEEMNAELTAK
modifications: also: in FRET: FITC on N-terminus of one monomer, terbium-DTPA-cytosine chelate on C-terminal Lys of the other
notes: Chemically synthesized; forms a coiled-coil dimer; also called human cardiac myosin S2 peptide; cardiac muscle myosin S2^pep
B10: Human β-cardiac mutant myosin S2 peptide (E924K), 19 residues (peptide)
peptide: EMNKRLEDEEEMNAELTAK
modifications: also: in FRET: FITC on N-terminus of one monomer, terbium-DTPA-cytosine chelate on C-terminal Lys of the other
notes: E924K already in the entry; also called Cardiac Myosin S2 Mutant, E924K
B11: Destabilizer peptide (peptide)
peptide: EMNERLEDEREMKAELTAK
notes: also called destabilizing peptide; unlabeled destabilizer
B12: FITC (fluorescein isothiocyanate) labeled destabilizing peptide (peptide)
peptide: {FITC′}-EMNERLEDEREMKAELTAK
notes: also called labeled Destabilizer; fluorescein labeled destabilizer peptide

Key:
[1] = target: the molecule itself; experiment: FRET donor lifetime on dilution of donor- and acceptor-labelled peptide; dissociation of the S2 peptide coiled-coil dimer (control)
[2] = target: the molecule itself; experiment: FRET, dimer dissociation (control); text value differs from Table 3
Rabbit skeletal myosin [3] = target: T2, Rabbit skeletal myosin (rabbit); experiment: 'previously calculated Kd values'; row stands under the IC-50 head for stabilizers, read as labeled stabilizer; method and source of the myosin not stated
T2 construct: mature; also called rabbit whole skeletal myosin; rabbit skeletal myosin S2

[4] = target: the molecule itself; experiment: cell-based or functional assay
[5] = target: B4; experiment: FRET donor lifetime of the labelled smooth muscle S2 peptide dimer titrated with the peptide
Description: (§1) Donor probe was conjugated to C-terminus of a myosin S2 peptide monomer and acceptor probe was conjugated to N-terminus of another myosin S2 peptide. In FRET as lanthanide of the donor probe decays, energy goes to fluorescein and it emits out energy in form of light. In addition, as the monomers come closer to each other, lifetime of donor decreases indicating a decrease in distance between donor and acceptor probe; an opposite effect is observed, with an increase in distance between the probes, […]. Lifetime of donor probe was measured in milliseconds.
The specificity of peptides were later tested on the myosin S2 of the smooth muscle (MYH11). […] Smooth muscle myosin S2^pep was treated with different concentrations of anti-S2 peptides.

[6] = target: B9; experiment: FRET donor lifetime of labelled S2 peptide dimer titrated with stabilizer
Description: as §1
(§2) During FRET assay, cardiac muscle myosin S2^pep was treated with increasing concentrations of anti-S2 peptides. […] Dilution to decrease the concentration of dimer cardiac muscle myosin S2^pep was performed to measure binding affinity of coiled-coil peptide and in turn to measure minimal concentration for stable dimer formation (FIG. 25A). […] (FIG. 25B)

[7] = target: B1; experiment: FRET donor lifetime of 0.1 µM labelled S2 peptide dimer titrated with stabilizer
[8] = target: B10; experiment: as above
[9] = target: B8; experiment: as above
[10] = target: B10; experiment: FRET donor lifetime of 0.1 µM labelled dimer titrated with stabilizer; text value and unit differ from Table 3
Description: as §1

[11] = target: T1, Cardiac muscle myosin S2 synthetic …; experiment: cell-based or functional assay
[12] = target: B6; experiment: cell-based or functional assay
[13] = target: B3; experiment: cell-based or functional assay
[14] = target: B7; experiment: cell-based or functional assay
Rabbit skeletal myosin [15] = target: T2, Rabbit skeletal myosin; experiment: cell-based or functional assay
[16] = target: T1, Cardiac muscle myosin S2 synthetic …; experiment: cell-based or functional assay
[17] = target: B6; experiment: cell-based or functional assay
[18] = target: B3; experiment: cell-based or functional assay
[19] = target: B9; experiment: competitive ELISA, printed as 'binding constant'; differs from 1.37 nM at paragraph 347
Procedure: (§3) Unbound protein complexes are washed off by PBS and blocking buffer. Enzyme conjugated secondary antibody is added to the wells and allowed to conjugate for an hour. After washing with detergent buffer, color developing substrate BCIP is added and development of color in the wells is recorded. The video is analyzed by Image J to get the OD in the wells.

[20] = target: B9; experiment: competitive ELISA, printed as 'binding efficiency'
Procedure: as §3

[21] = target: B9; experiment: competitive ELISA (curve fit of OD), printed as 'binding efficiency'; antibody 1:64, 62.5 nM S2 peptide, stabilizer 0 to 250 nM, rabbit skeletal myosin coated
Procedure: as §3

Rabbit skeletal myosin [22] = target: T2, Rabbit skeletal myosin; experiment: 'previously calculated Kd values'; row stands under the IC-50 head for stabilizers, read as unlabeled stabilizer; method and source of the myosin not stated
[23] = target: B9; experiment: competitive ELISA (curve fit of OD, FIG. 44B); antibody 1:64, 62.5 nM human cardiac S2 peptide, rabbit skeletal myosin coated; the sentence does not name the target
Procedure: (§4) The assay began with coating 96 well microtiter plate with rabbit skeletal myosin molecule overnight. […] After incubation at room temperature for an hour, the unbound protein complexes were washed with PBS and blocking buffer. Enzyme conjugated secondary antibody were added on to the wells and allowed conjugate for an hour at room temperature. After washing the wells with detergent buffer, color developing BCIP substrate were added on to the wells. Images of the color developed in the wells were captured and analyzed in Image J.

[24] = target: B8; experiment: FRET donor lifetime of 2 µM labelled S2 peptide dimer titrated with destabilizer
Description: as §1
Like cardiac muscle myosin S2^pep, dilution by decreasing the concentration of dimer skeletal muscle myosin S2^pep was performed and further was treated with different concentrations of anti-S2 peptides (FIG. 28A, 28B). Different concentrations of dimer skeletal muscle myosin S2^pep was used with anti-S2 peptides.

[25] = target: B9; experiment: competitive ELISA (FIG. 44); differs from 6 nM at paragraph 385
Procedure: as §4

Rabbit skeletal myosin [26] = target: T2, Rabbit skeletal myosin; experiment: 'previously calculated Kd values, concentrations at which half of myosin is saturated'; method and source of the myosin not stated
[27] = target: B9; experiment: FRET donor lifetime of labelled S2 peptide dimer titrated with destabilizer
Description: as §1, §2

T2 sequence (Q28641 whole entry, chain 1 of 3): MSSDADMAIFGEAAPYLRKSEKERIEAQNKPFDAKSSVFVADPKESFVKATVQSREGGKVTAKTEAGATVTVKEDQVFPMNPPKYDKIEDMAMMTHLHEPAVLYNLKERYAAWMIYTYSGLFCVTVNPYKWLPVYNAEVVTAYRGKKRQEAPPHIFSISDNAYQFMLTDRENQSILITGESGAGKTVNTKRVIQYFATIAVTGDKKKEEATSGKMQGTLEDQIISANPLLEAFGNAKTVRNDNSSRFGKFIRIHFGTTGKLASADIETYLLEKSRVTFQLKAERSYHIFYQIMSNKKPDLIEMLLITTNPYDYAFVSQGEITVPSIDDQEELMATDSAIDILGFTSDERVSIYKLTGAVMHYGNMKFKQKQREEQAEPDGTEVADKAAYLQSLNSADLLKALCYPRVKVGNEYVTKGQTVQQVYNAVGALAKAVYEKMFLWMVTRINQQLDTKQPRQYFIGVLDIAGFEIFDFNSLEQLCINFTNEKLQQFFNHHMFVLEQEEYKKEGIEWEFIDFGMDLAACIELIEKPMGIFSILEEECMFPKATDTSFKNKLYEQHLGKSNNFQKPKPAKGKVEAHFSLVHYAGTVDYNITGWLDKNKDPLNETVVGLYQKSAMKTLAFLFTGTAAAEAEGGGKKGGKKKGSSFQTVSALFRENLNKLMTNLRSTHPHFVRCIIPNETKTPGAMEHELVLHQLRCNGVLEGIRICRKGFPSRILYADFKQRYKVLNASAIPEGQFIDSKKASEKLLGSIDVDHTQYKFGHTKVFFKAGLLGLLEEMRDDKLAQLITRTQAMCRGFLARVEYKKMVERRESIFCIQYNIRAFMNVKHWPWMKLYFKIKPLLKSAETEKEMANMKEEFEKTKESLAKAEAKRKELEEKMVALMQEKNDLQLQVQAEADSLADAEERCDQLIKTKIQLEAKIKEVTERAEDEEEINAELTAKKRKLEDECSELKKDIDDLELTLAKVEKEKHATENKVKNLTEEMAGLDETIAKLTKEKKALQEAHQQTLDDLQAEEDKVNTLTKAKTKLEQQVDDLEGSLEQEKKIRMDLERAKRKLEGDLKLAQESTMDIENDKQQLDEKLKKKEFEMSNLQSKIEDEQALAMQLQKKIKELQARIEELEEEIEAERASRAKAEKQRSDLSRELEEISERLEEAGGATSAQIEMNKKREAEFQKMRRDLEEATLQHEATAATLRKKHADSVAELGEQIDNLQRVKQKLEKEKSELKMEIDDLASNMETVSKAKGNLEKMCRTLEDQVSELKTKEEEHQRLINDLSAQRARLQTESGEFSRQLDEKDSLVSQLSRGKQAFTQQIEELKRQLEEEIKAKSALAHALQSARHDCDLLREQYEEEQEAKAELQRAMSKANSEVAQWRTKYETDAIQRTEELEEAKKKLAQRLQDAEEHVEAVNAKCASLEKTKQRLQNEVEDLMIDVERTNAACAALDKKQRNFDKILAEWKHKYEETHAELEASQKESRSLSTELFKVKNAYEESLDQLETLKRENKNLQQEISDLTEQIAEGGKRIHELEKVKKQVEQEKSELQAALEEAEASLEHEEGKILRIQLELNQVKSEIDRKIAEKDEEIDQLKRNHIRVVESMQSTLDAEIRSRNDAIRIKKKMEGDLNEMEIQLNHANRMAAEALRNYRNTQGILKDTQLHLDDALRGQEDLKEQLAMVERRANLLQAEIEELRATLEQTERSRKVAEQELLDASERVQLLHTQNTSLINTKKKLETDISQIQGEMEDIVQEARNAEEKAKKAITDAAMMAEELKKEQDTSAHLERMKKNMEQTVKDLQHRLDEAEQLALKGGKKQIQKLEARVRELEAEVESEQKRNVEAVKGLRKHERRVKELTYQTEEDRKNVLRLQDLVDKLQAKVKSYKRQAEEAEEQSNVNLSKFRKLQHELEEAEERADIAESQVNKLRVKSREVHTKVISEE
T2 sequence (P02602 2-192, chain 2 of 3, further chain): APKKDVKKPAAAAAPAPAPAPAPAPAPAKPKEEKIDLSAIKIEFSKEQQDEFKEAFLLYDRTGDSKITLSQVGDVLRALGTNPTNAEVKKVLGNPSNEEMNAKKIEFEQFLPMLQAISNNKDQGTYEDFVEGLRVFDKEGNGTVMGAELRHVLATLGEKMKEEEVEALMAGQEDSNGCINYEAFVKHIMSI
T2 sequence (P02608 2-170, chain 3 of 3, further chain): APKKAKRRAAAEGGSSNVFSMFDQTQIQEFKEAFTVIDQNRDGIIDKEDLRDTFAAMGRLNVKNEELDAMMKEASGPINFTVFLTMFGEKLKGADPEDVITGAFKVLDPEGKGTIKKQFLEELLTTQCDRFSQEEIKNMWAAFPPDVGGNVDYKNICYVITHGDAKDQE

Binder: B1
Kd [1]: 1110 nM
Kd [2]: 3240 nM

Binder: B2
Kd (Rabbit skeletal myosin [3]): 330 nM

Binder: B3
GFS: force to uncoil the S2 peptide dimer to a length of 10 nm, no anti-S2 peptide (control) [4]: 0.45 pN

Binder: B4
Kd [1]: 302 nM

Binder: B5
binding result [5]: no binding
Kd [6]: 21.2 nM
Kd [7]: 238 nM
Kd [8]: 34 nM
Kd [9]: 19.7 nM
Kd [10]: 36.2 mM
GFS: force to uncoil the S2 peptide dimer to a length of 10 nm, with stabilizer [11]: 1.07 pN
GFS: force to uncoil the S2 peptide dimer to a length of 10 nm, with stabilizer [12]: 1.55 pN
GFS: force to uncoil the S2 peptide dimer to a length of 10 nm, with stabilizer [13]: 0.628 pN
GFS: force to uncoil the S2 peptide dimer to a length of 10 nm, with stabilizer [14]: 0.496 pN
GFS: fold of force required to uncoil myosin in presence of stabilizer against control (Rabbit skeletal myosin [15]): 1.5 times
GFS: fold increase of the force required to uncoil the coiled coil against control [16]: 2.6 times
GFS: fold increase of the force required to uncoil the coiled coil against control [17]: 1.8 times
GFS: fold increase of the force required to uncoil the coiled coil against control [18]: 1.4 times
Kd [19]: 1.38 nM
Kd [20]: 1 nM
Kd [21]: 1.37 nM
Kd (Rabbit skeletal myosin [22]): 6 nM

Binder: B6
GFS: force to uncoil the S2 peptide dimer to a length of 10 nm, no anti-S2 peptide (control) [4]: 0.863 pN

Binder: B7
GFS: force to uncoil the S2 peptide dimer to a length of 10 nm, no anti-S2 peptide (control) [4]: 0.461 pN

Binder: B8
Kd [1]: 341 nM

Binder: B9
Kd [1]: 303 nM
Kd [2]: 308 nM

Binder: B10
Kd [1]: 942 nM
Kd [2]: 2540 nM

Binder: B11
binding result [5]: no binding
Kd [23]: 6 nM
Kd [24]: 469 nM
GFS: force to uncoil the S2 peptide dimer to a length of 10 nm, with destabilizer [12]: 0.436 pN
GFS: force to uncoil the S2 peptide dimer to a length of 10 nm, with destabilizer [13]: 0.184 pN
GFS: force to uncoil the S2 peptide dimer to a length of 10 nm, with destabilizer [14]: 0.451 pN
GFS: fold less force required to uncoil myosin in presence of destabilizer against control (Rabbit skeletal myosin [15]): 1.6 times
GFS: fold decrease of the force required to uncoil the coiled coil against control [17]: 1.98 times
GFS: fold decrease of the force required to uncoil the coiled coil against control [18]: 2.45 times
Kd [25]: 1 nM
Kd (Rabbit skeletal myosin [26]): 75 nM
Kd [27]: 1330 nM

Binder: B12
Kd (Rabbit skeletal myosin [26]): 176 nM

— patent US12617818 (UNIVERSITY OF NORTH TEXAS, dated 2026)
